The record followed here is patent US20250101089A1.

The experiment concerns the target 6×His human TRIM21 PRYSPRY labelled with Alexa Fluor 488 (human) (UniProt P19474). Briefly: fluorescence anisotropy; 5 nM Alexa Fluor 488-labelled human TRIM21 PRYSPRY, antibody titrated.
Chain of UniProt P19474 (P19474 287-465 limits assumed): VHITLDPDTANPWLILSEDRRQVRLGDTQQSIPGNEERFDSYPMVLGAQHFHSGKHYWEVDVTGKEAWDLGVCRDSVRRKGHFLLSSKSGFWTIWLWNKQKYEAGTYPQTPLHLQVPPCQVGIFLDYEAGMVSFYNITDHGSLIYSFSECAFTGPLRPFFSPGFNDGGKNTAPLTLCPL
In the case of “AP422 T256P (mouse-human chimeric, human IgG1 Fc region) (antibody)”, the Kd – broadly, the equilibrium constant for the complex coming apart – is 0.7 nM.

“AP422 NALALA (N297A, L234A, L235A; mouse-human chimeric, human IgG1 Fc region) (antibody)” showed a Kd of 29 nM. Regarding “9C12 T256P (mouse-human chimeric, human IgG1 Fc) (antibody)”, the equilibrium dissociation constant (Kd) worked out at 1 nM and the fold increase in affinity against 9C12 WT came to 10 fold. “AP422 NALALA T256P (mouse-human chimeric, human IgG1 Fc region) (antibody)” displayed a Kd of 0.1 nM. As to “AP422 N297A T256P (mouse-human chimeric, human IgG1 Fc region) (antibody)”, the Kd amounted to 0.9 nM.

“AP422 N297A (mouse-human chimeric, human IgG1 Fc region) (antibody)” gave a Kd of 14 nM. Same read-out and setting: next, “9C12 N297A T256P (mouse-human chimeric, human IgG1 Fc) (antibody)”: 0.467 nM.
